Results from patent publication US20140087995A1 (published 2014).
Numbered stars: 1 amine (or outer) side, 2 acyl side, 3 side chain; on linkers, the order of the positions; unused ones are H or OH. Bridge positions count the residues as written; N and C are the ends. Side chains are listed from the residue outwards. Ends that are not written are not given here. * marks the point of attachment. C20 diacid = O=C(O)CCCCCCCCCCCCCCCCCCC(=O)*; γGlu = O=C(O)[C@H](CCC(=O)[*:2])N[*:1]; AEEA = NCCOCCOCC(=O)O

T1: human calcitonin receptor (human, UniProt P30988 25-474)
T1 sequence (looked up): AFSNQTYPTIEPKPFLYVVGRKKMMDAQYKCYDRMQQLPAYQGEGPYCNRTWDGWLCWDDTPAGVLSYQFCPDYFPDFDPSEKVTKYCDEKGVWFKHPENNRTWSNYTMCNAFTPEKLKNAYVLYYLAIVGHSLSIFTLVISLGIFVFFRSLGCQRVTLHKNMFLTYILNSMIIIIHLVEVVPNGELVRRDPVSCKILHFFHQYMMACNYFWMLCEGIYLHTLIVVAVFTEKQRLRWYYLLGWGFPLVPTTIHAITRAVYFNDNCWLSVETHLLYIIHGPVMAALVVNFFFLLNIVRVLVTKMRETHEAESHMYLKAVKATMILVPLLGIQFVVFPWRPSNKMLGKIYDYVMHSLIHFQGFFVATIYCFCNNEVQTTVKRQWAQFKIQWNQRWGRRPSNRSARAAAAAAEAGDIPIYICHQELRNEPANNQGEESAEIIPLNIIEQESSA

B1: N^α1-[(4S)-4-carboxy-4-(19-carboxynonadecanoylamino)butanoyl]-[His14,Arg17,Pro21,Pro27,Glu35]-h-amylin (peptide)
peptide: {C20 diacid-γGlu}-KCNTATCATQRLAHFLRHSSPNFGAIPSSTNVGSETY-NH2
modifications: disulfide 2-7
SMILES: CC[C@H](C)[C@H](NC(=O)[C@H](C)NC(=O)CNC(=O)[C@H](Cc1ccccc1)NC(=O)[C@H](CC(N)=O)NC(=O)[C@@H]1CCCN1C(=O)[C@H](CO)NC(=O)[C@H](CO)NC(=O)[C@H](Cc1c[nH]cn1)NC(=O)[C@H](CCCNC(=N)N)NC(=O)[C@H](CC(C)C)NC(=O)[C@H](Cc1ccccc1)NC(=O)[C@H](Cc1c[nH]cn1)NC(=O)[C@H](C)NC(=O)[C@H](CC(C)C)NC(=O)[C@H](CCCNC(=N)N)NC(=O)[C@H](CCC(N)=O)NC(=O)[C@@H](NC(=O)[C@H](C)NC(=O)[C@@H]1CSSC[C@H](NC(=O)[C@H](CCCCN)NC(=O)CC[C@H](NC(=O)CCCCCCCCCCCCCCCCCCC(=O)O)C(=O)O)C(=O)N[C@@H](CC(N)=O)C(=O)N[C@@H]([C@@H](C)O)C(=O)N[C@@H](C)C(=O)N[C@@H]([C@@H](C)O)C(=O)N1)[C@@H](C)O)C(=O)N1CCC[C@H]1C(=O)N[C@@H](CO)C(=O)N[C@@H](CO)C(=O)N[C@H](C(=O)N[C@@H](CC(N)=O)C(=O)N[C@H](C(=O)NCC(=O)N[C@@H](CO)C(=O)N[C@@H](CCC(=O)O)C(=O)N[C@H](C(=O)N[C@@H](Cc1ccc(O)cc1)C(N)=O)[C@@H](C)O)C(C)C)[C@@H](C)O
notes: analogue of human amylin; also called compound 30
B2: N^ε1-[2-[2-[2-[[2-[2-[2-[[(4S)-4-carboxy-4-(19-carboxynonadecanoylamino)butanoyl]amino]ethoxy]ethoxy]acetyl]amino]ethoxy]ethoxy]acetyl]-[Arg17,Pro21,Pro27,Glu35 … (peptide)
peptide: K([AEEA-AEEA-γGlu-C20 diacid])CNTATCATQRLANFLRHSSPNFGAIPSSTNVGSETY-NH2
modifications: disulfide 2-7; N-terminus assumed
SMILES: CC[C@H](C)[C@H](NC(=O)[C@H](C)NC(=O)CNC(=O)[C@H](Cc1ccccc1)NC(=O)[C@H](CC(N)=O)NC(=O)[C@@H]1CCCN1C(=O)[C@H](CO)NC(=O)[C@H](CO)NC(=O)[C@H](Cc1c[nH]cn1)NC(=O)[C@H](CCCNC(=N)N)NC(=O)[C@H](CC(C)C)NC(=O)[C@H](Cc1ccccc1)NC(=O)[C@H](CC(N)=O)NC(=O)[C@H](C)NC(=O)[C@H](CC(C)C)NC(=O)[C@H](CCCNC(=N)N)NC(=O)[C@H](CCC(N)=O)NC(=O)[C@@H](NC(=O)[C@H](C)NC(=O)[C@@H]1CSSC[C@H](NC(=O)[C@@H](N)CCCCNC(=O)COCCOCCNC(=O)COCCOCCNC(=O)CC[C@H](NC(=O)CCCCCCCCCCCCCCCCCCC(=O)O)C(=O)O)C(=O)N[C@@H](CC(N)=O)C(=O)N[C@@H]([C@@H](C)O)C(=O)N[C@@H](C)C(=O)N[C@@H]([C@@H](C)O)C(=O)N1)[C@@H](C)O)C(=O)N1CCC[C@H]1C(=O)N[C@@H](CO)C(=O)N[C@@H](CO)C(=O)N[C@H](C(=O)N[C@@H](CC(N)=O)C(=O)N[C@H](C(=O)NCC(=O)N[C@@H](CO)C(=O)N[C@@H](CCC(=O)O)C(=O)N[C@H](C(=O)N[C@@H](Cc1ccc(O)cc1)C(N)=O)[C@@H](C)O)C(C)C)[C@@H](C)O
notes: analogue of human amylin; also called compound 25

Molecular target: T1, human calcitonin receptor
Test: cell-based or functional assay

| Binder | Ratio hCT/hAmylin funct. | hCTR funct. EC50 [nM] |
| --- | --- | --- |
| B1 | 12.6 | 1.68 |
| B2 |  | 10 |
